# Assay results as given in PMC8458682 (Slas Discovery, 2022).
# Columns and labels:
# SARS-CoV-2 M^pro [1] = biological target: T1, SARS-CoV-2 M^pro (Severe acute respiratory syndrome coronavirus 2, UniProt P0DTD1); assay: biochemical; conditions: read-out: Screening: Inhibition @ 50 µM
# SARS-CoV-2 M^pro [2] = biological target: T1, SARS-CoV-2 M^pro; type: biochemical
# [3] = test system: CC(C)C[C@H](NC(=O)[C@@H](NC(=O)[C@H](C)NC(=O)[C@H](CO)NC(=O)c1ccccc1N)C(C)C)C(=O)N[C@@H](CCC(N)=O)C(=O)N[C@@H](CO)C(=O)NCC(=O)N[C@@H](Cc1ccc(O)c([N+](=O)[O-])c1)C(=O)N[C@@H](CCCNC(=N)N)C(=O)O; assay: purified protein, by the assay type; conditions: pH 7.4
# [4] = test system: CC(C)C[C@H](NC(=O)[C@@H](NC(=O)[C@@H](NC(=O)[C@@H](NC(=O)c1ccccc1N)C(C)C)C(C)C)[C@@H](C)O)C(=O)N[C@@H](CCC(N)=O)C(=O)N[C@@H](CO)C(=O)NCC(=O)N[C@@H](Cc1ccc(O)c([N+](=O)[O-])c1)C(=O)N[C@@H](CCCNC(=N)N)C(=O)O; assay: purified protein, by the assay type; conditions: pH 7.4
# [5] = test system: CC(C)C[C@H](NC(=O)[C@@H](NC(=O)[C@@H](NC(=O)[C@@H](NC(=O)c1ccccc1N)C(C)C)C(C)C)[C@@H](C)O)C(=O)N[C@@H](CCC(N)=O)C(=O)N[C@@H](CO)C(=O)NCC(=O)N[C@@H](CNc1ccc([N+](=O)[O-])cc1[N+](=O)[O-])C(=O)N[C@@H](CCCNC(=N)N)C(=O)O; assay: purified protein, by the assay type; conditions: pH 7.4
Compound,inhibition at 50 µM (SARS-CoV-2 M^pro [1]) [%],Hill slope (SARS-CoV-2 M^pro [2]),Km [3] [µM],Vmax [3] [µM/min],kcat [3] [s⁻¹],kcat/Km [3] [M⁻¹ s⁻¹],Km [4] [µM],Vmax [4] [µM/min],kcat [4] [s⁻¹],kcat/Km [4] [M⁻¹ s⁻¹],Km [5] [µM],Vmax [5] [µM/min],kcat [5] [s⁻¹],kcat/Km [5] [M⁻¹ s⁻¹]
CC(C)(C)NC(=O)N[C@H](C(=O)N1C[C@H]2[C@@H]([C@H]1C(=O)NC(CC1CCC1)C(=O)C(N)=O)C2(C)C)C(C)(C)C (some centres unmarked) [Boceprevir],55.5 ± 4.7,0.85 ± 0.05,–,–,–,–,–,–,–,–,–,–,–,–
SARS-CoV-2 M^pro (Severe acute respiratory syndrome coronavirus 2),–,–,536.3 ± 156.6,2.39,0.133 ± 0.0279,248 ± 89.2,197.9 ± 39.0,1.32,0.0733 ± 0.0077,370 ± 82.6,103.3 ± 18.5,0.426,0.0237 ± 0.0017,229 ± 44.2
